The values that follow come from PMC9943657, “Structural basis for topological regulation of Tn3 resolvase”.

The target of data set [1] is T1, Tn3 resolvase (crystallized) (Tn3 transposon, UniProt P0ADI2 1-185). Description: X-ray crystallography; Form I, ~3.4 A, one dimer-DNA complex per asymmetric unit; Crystal DNA annealed at 1 mM in TE (Tris-HCl pH 8.0, EDTA), 50 mM NaCl; footprinting: synapses crosslinked with glutaraldehyde, DNase I + 10 mM MgCl2; binding buffers and temperature not in material. To be noted: protein: recombinant; chain copies: 2; label: none for native; 29 bp, 1-nt 5' overhang at each end.

Data set [2] addresses T1, Tn3 resolvase (crystallized). Description: X-ray crystallography; Form II, ~4.0/4.5/4.0 A, two dimer-DNA complexes per asymmetric unit; Crystal DNA annealed at 1 mM in TE (Tris-HCl pH 8.0, EDTA), 50 mM NaCl; footprinting: synapses crosslinked with glutaraldehyde, DNase I + 10 mM MgCl2; binding buffers and temperature not in material. The note with it: protein: recombinant; chain copies: 2; label: none for native; 25 bp, 2-nt 5' overhang at each end.

T1 sequence (P0ADI2 whole entry): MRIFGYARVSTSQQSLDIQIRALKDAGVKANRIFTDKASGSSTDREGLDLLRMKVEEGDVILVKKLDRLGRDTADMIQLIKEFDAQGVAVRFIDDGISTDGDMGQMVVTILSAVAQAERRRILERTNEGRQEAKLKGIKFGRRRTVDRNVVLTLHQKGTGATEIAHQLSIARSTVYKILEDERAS

B1: Tn3 res site III, Form I duplex (dsDNA)
DNA 1: TCGTGTCTGATATTCGATTTAAGGTACATT
DNA 2: AAATGTACCTTAAATCGAATATCAGACACG
Take B1: in data set [1], the binding result is reported as “binds”.

B2: Tn3 res site III, Form II duplex (dsDNA)
DNA 1: ATTGTCTGATATTCGATTTAAGGTACA
DNA 2: ATTGTACCTTAAATCGAATATCAGACA
In the case of B2, the binding result in data set [2] is on record as “binds”.
